According to publication doi:10.1101/597906:
Where two headings read alike, the source gives them in different places.

Key:
polymerized microtubules [1] = assay: single-molecule TIRF microscopy motility assay
polymerized microtubules [2] = assay: single-molecule TIRF microscopy motility assay; remark: listed apart in the source

landing rate (molecules bound to microtubules per length and time) (polymerized microtubules [1]) | landing rate (molecules bound to microtubules per length and time) (polymerized microtubules [2]) | Substance
0.012 /μm/sec | 0.002 /μm/sec | full-length human KIF1A fused to a C-terminal mScarlet-strepII tag (from UniProt Q12756 1-1690) (natural protein)
 | 0.024 /μm/sec | full-length human KIF1A(A255V) fused to a C-terminal mScarlet-strepII tag (from UniProt Q12756 1-1690) (natural protein)
 | 0.025 /μm/sec | full-length human KIF1A(R350G) fused to a C-terminal mScarlet-strepII tag (from UniProt Q12756 1-1690) (natural protein)
 | 0.039 /μm/sec | full-length human KIF1A(V8M) fused to a C-terminal mScarlet-strepII tag (from UniProt Q12756 1-1690) (natural protein)
